Earlier results in paper PMC11853434.
Like-named read-outs stand apart in the source and are kept apart here.

What was measured:
[1] = target: SARS-CoV-2 spike RBD RBD (Severe acute respiratory syndrome coronavirus 2) (UniProt P0DTC2)
[2] = target: SARS-CoV-2 spike RBD RBD (Severe acute respiratory syndrome coronavirus 2) (UniProt P0DTC2); remark: listed apart in the source

Substance	Kd [1] [nM]	Kd [2] [nM]
imdevimab	45.2	
casirivimab		3.37
